Experimental data published in patent US8445633B2, “Peptide having bindability with adiponectin, analysis method utilizing same peptide, and analysis device utilizing same peptide” (Sharp Kabushiki Kaisha, priority 2010, dated 2013).

Key:
[1] = target: T1, adiponectin (Homo sapiens, UniProt Q15848); experiment: Bond between adiponectin immobilized onto a microplate and biotin-tagged peptide, enzyme immunoassay (HRP-tagged streptavidin, TMB); format: binding; conditions: Example 2, FIG. 4; for absorbance at 450 nm: 1 mM peptide with C-terminal lysine tagged with biotin, compared with peptide of SEQ ID NO. 17 (Comparative Example 2); for bindability with adiponectin: conclusion from absorbance
T1 construct: purchased R&D Systems
T1 sequence (Q15848 19-244): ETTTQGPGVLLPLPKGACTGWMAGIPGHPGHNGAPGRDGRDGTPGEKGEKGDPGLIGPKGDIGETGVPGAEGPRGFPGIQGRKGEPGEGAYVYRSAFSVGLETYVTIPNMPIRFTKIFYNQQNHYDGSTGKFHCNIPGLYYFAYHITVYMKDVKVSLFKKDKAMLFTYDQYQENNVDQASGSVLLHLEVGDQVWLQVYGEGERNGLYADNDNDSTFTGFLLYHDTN
Method: As described below, the bond between adiponectin immobilized onto a microplate and each of peptides tagged with biotin (biotin-tagged peptide) was measured by using enzyme immunoassay.
First, peptides were prepared in such a manner that lysine was added to the C-terminal of each of peptides having amino-acid sequences represented by SEQ ID NOs: 14 and 15. Then, the amino group of a lysine side chain of each of the peptides thus prepared was tagged with biotin so that biotin-tagged peptides were prepared.
5 μg/mL adiponectin (R&D Systems) prepared with PBS was dispensed to wells of a 96-well microplate in an amount of 100 μL per well. Then, the peptides were incubated for 1 hour at 37° C. Adiponectin was thus immobilized in the wells. In order to inhibit nonspecific binding, a blocking solution (Protein-Free Blocking Buffer, PIERCE) was then added to the wells in an amount of 300 μL per well. Then, the peptides were incubated for 2 hours at room temperature. Then, the wells were washed three times with PBST (PBS containing 0.1% (v/v) Tween 20). Then, 1 mM biotin-tagged peptide was added to the wells in an amount of 100 μL per well. Then, the peptides were incubated for 1 hour at room temperature. Then, the wells were washed with PBST again.
Then, HRP-tagged streptavidin (R&D Systems) diluted with 200 parts of the blocking solution (Protein-Free Blocking Buffer, PIERCE) was added to the well in an amount of 100 μL per well. Then, the streptavidin was incubated for 1 hour at room temperature. Then, the wells were washed with PBST. Then, TMB (tetramethylbenzidine) was added to the wells in an amount of 100 μL per well so that they react with each other for 20 minutes. Then, the reaction was stopped by adding 1 M of HCL to the wells in an amount of 100 μL per well. Then, an absorbance at 450 nm was measured by use of a microplate reader (Bio-Rad).
The bond between a peptide having the amino-acid sequence represented by SEQ ID NO. 17 and adiponectin as in Example 2.

[2] = target: T1, adiponectin; experiment: Bond between peptide spot-synthesized on cellulose membrane and adiponectin, sandwich enzyme immunoassay (HRP-tagged anti-adiponectin antibody, Amplex Red fluorescence); format: binding; conditions: Example 3, FIG. 5; for bindability with adiponectin: conclusion from fluorescent intensity; for fluorescent intensity in the synthesis spot: peptides with conservative substitution compared with parent peptides SEQ ID NOs: 8 and 9
Source text: In order to identify an amino-acid sequence having bindability with adiponectin, a peptide was synthesized on a cellulose membrane by use of a peptide synthesis device (Model MultiPep RS (Intavis AG)) utilizing a Fmoc-based peptide spot synthesis.
Immobilized on the cellulose membrane was polyethylene glycol having a terminal modified with an amino group. An Fmoc amino acid was bound with the amino group by using DIC (diisopropylcarbodiimide)/HOBt (hydroxybenzotriazole). After that, Fmoc was removed.
The cycle of the removal of Fmoc and the subsequent binding was repeated to synthesis a peptide. Then, N-terminals and side chains of all the peptides were deprotected. Thereby, peptides consisting of amino-acid sequences represented by SEQ. ID NOs: 1 to 15 were obtained.
The sandwich technique which is one of enzyme immunoassays was performed to measure the bond between each of the peptides thus synthesized and adiponectin.
First, a cellulose membrane was soaked in ethanol. Then, the cellulose membrane was continuously washed with phosphate buffered saline (PBS) (pH 7.4) so that ethanol contained in the cellulose membrane was replaced with PBS. In order that nonspecific binding is inhibited, the cellulose membrane was incubated overnight in a blocking solution (PBS containing 1% milk powder).
Then, the cellulose membrane was incubated for 1 hour in a blocking solution (PBS containing 1% milk powder) which contains 0.25 μg/mL human adiponectin (R&D Systems). Then, the cellulose membrane was washed with PBST (PBS containing 0.1% (v/v) Tween 20). Then, the cellulose membrane was incubated for 1 hour in a blocking solution containing […] anti-human adiponectin antibody (R&D Systems) which is tagged with HRP, and then washed with PBST five times.
After that, 100 μM fluorescent substrate (Amplex Red (Invitrogen)) containing 1 mM hydrogen peroxide was added to the cellulose membrane, and then they react with each other for 10 minutes. A fluorescent intensity in a synthesis spot was measured in such a manner that an […] wavelength of 595 nm of fluorescence from the fluorescent substrate was measured by a fluorescence imager (GE Healthcare) by exciting, with light of 540 nm, the fluorescent substrate in the synthesis spot. A bond strength of the peptide was worked out from the fluorescent intensity in the synthesis spot.
A peptide consist of the amino-acid sequence represented by SEQ ID NO. 16 was synthesized as in Example 1. Then, the bond between the synthesized peptide and adiponectin was measured as in Example 1.
Then, the bond between each of the synthesized peptides and adiponectin was measured as in Example 1.

Row | absorbance at 450 nm [1] | bindability with adiponectin [1] | bindability with adiponectin [2] | Substance | fluorescent intensity in the synthesis spot [2]
1 | significantly higher in absorbance | had the bindability with adiponectin | – | 14 (ITPIHWVK; Adiponectin binding peptide) [compound 14] | –
2 | – | – | had the bindability with adiponectin | 19 (KFATPKHR; Adiponectin binding peptide) [compound 19] | close to those of the peptides having the amino-acid sequences represented by SEQ ID NOs: 8 and 9
3 | significantly higher in absorbance | had the bindability with adiponectin | – | 15 (ILLPLRIN; Adiponectin binding peptide) [compound 15] | –
4 | – | – | had the bindability with adiponectin | 18 (MGSFVPY; Adiponectin binding peptide) [compound 18] | close to those of the peptides having the amino-acid sequences represented by SEQ ID NOs: 8 and 9
